Laboratory results published in paper PMC6457126 (Proteins, 2018).
No end group written: not given here.

T1: ATAD2 CO C1057A/C1079A/C1101A bromodomain (triple cysteine mutant) (human, UniProt Q6PL18 981-1108, C1057A | C1079A | C1101A)
T1 sequence: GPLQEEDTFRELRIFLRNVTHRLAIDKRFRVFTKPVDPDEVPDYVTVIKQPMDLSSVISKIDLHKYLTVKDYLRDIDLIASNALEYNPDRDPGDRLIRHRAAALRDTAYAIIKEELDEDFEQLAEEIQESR


Tests used:
[1] = biological target: histone H4K5ac (Homo sapiens) (UniProt P62805); assay: ITC; conditions: cited from earlier work
[2] = biological target: T1, ATAD2 CO C1057A/C1079A/C1101A …; assay: ITC

Kd [2] | dH [2] | stoichiometry N [2] | Molecule | Kd [1]
 |  |  | ATAD2 bromodomain (from UniProt Q6PL18) | 22 µM
113 µM | -4.2 kcal/mol | 0.84 | SGRGK(Ac)GGKGL [histone H4K5ac peptide (residues 1-10)] | 
